Results reported in the domain aggregation screens of Martell et al. (2025).

Assay: soluble fraction after stress (log2 fold change); higher = more stays soluble; pooled small domains, quantitative proteomics
Conditions: stress: pH 4
Method in brief: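 Aggregation propensity is read out as the fold change in how much of each domain remains soluble after acid stress. The custom small-domain libraries were pooled, held at pH 4 and analysed with high-throughput quantitative proteomics. On the log2 scale used, higher values mean more of the domain stayed soluble.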

Sequence | soluble fraction (log2)
HMQLDDDQKEELILKLIDSLDTTKKGAPLTELAREAAKSNIGESELEEITTSLLDKGLVYEPTIGKMKR | 0.0111
HMNQTEKSKITHNELLKAAHSLFIEQGFNHTTITDIVTRAGYSTGIFYKHYKTKTDILVELWTNYIE | -1.28
HMDRADIDAVDAEWVRATMERLGLRAKHIESHTGISKSTLSILLNGHRPLTRWHKIAFYYLFKHIEF | -1.82
HMKYSYAELTKLQEQIAQDRNAPLTVPNALGIGLDERNNVIEITVNIADEAAAKAYYLQKYGDRISLKTTD | -0.243
HMKIKKIWFDGDYIYGMDERNNTYRQSLLWYSKLRNASAEERERYTFSTIGIHWRELDEDVSFESF | -1.78
HMQKITPDNWTYIRSLIRQKWSPDQIDQWLKKHPDVGFTVSRETIYQYVKEDRQKDGDLYLSLRRAGKSY | -1.11
HMNREYELTAEESGQRLDKYLAGEMTDLSRSRIKELVQAGEILVNGKKSKVSYKVQKDDLIQVIVLPLE | -0.0759
HMSKKIVLPAAITVKKFSETLDMPLGTVISELMKNGILATINERIDFETASIIAQDLGYEVSEEV | 0.0626
HMAEANTEADFVAIGVRAELLPILQKLGVHTIEQLKGIKATKLFNDIPGMRKKLKLDAVQNPTLQEIEGWL | -0.393
HMVKIVWSKEGPYVGTRVRRYFSQGPVDGTVVMYAKPQKGDDVALWRISHDDGDEEDLEEQELRLAID | -1.69
HMNYYDLLGIPKSATKQQIRKAYRTKAKEFHPDVNGPFNSHMHFLLLKQAYETLMDANMRHVYDMALIS | 0.215
HMDALPLIQLEKEIKDFISQGQKINAIKHYRNVMDRDFGTTISLKLAKYTVDALAQNIKVDLTKGYDQ | -0.852
HMSAISSARKEKIIEYLTDHGSARSSEIAEYVDLRPSRVRDYLGELVREDIVVAEGANRNRTYRLK | 0.409
HMNGKTIEVPDITEKSIAEAQLILNQKKLRYNVVDSTRFDPAYLPFSVLTQEPEAGDEVKKNRTIYITLNP | -0.0716
HMTFPYTSLKDAPKNMKEIDGVPLTLDQVNQIAKVADSIGVSKEKNGYAIAKSQFKKSHHIENNRWVKNK | 0.126
HMDSVPEEQLRQLALDKAKEVKRWGQPVELAKMNAHDRRIIHINLQDDPEIETRSEGEGALKSVIISLKK | 0.135
HMPSDTNLIGKTGIAYTTLRPGGTALIDDRKVDVVADSEYIEKDKKIKVIRVEGIKVVVTAVK | 0.194
HMIVDARNREINLGSHVRYVDTGTVGEVTDSKVENDASWVKIDKTNLWYLANKLELLNDEDFKT | -0.517
HMQNAMQKELIDAFQKAYPDLDITKIELVYGTYYEVEAMNSTTEFTYRYDQNSKTFILAEQDNADP | -0.0395

Sequence | soluble fraction (log2)
HMETIHEMVNRLSSEGFIKNEDGIWYLRDRRGDGTKWLKNPFFESTGEKDAFALIDHLKVNDELLSKLRK | -0.433
HMLKHEEIQEYIKEQINSGTWKPKAKLPSLRDMSELFSTSIGTVLTAYSALEKKHIIYSIPRSGYYVLG | -0.334
HMALLKRQDEILMYLYTQNKWITGNELAQLFHVSLRTIRNDISFINTEKSNSVLSNRNKGYHIAKDFVYNE | -0.0758
HMHHIDTAWFRGKMREHRLTQEAVGQAIGLERSMVSKIIKGTVSFNARKASAWAQLLRVSESEILERVGI | -0.379
HMNNTIKFSVDENNSGKRLDVYLTENINHLTRSFLKKLIEKEQVKLNKKVLTSPATKVKTKDQITINIIE | -0.26
HMAEVDDESIKLYDGGYQSNTTKSRLNALLSEFGYDTEHVFQKQFEWFISIFDLTEKAMRTVPFSNGMRL | -0.257
HMNRREFQFSEGSSNKFWSIELRDQSFIVHYGKIGTNGQAQEKTFATADAAKKEHDKLIAEKTKKGYVEVQ | -0.691
HMVERLVVSPGAGVFAPNKAIANGTRISVGDVLGMVGEQEVRSLFDGVLQSFISVDGERLTAHQPVAWLRT | -0.111
HMKKVIEFKDVSFAFEKKPILQDFNLLVQNKDRIGIVGDNGVGKSTLLNLIAERLQPQSGQVII | 0.0777
HMQYTQKTMYINDSYVNLRKSASTSSDIIMVVELNTKLTVIGEDGDWYKVKTSSGNAYVLKTLLSNEKKET | -0.368
HMPLDPFVVDALRDEIINTIKQHEPRVDLQKVQVQPIYTQNRVNISVQYKIVGLPIVEDITFVLQRP | 0.135
HMDIMLLLYKNIKKRRLEIGMSQEELAQKTGYTSRSSIAKIEKGEVDLQLSKIKLFANALRVSQSELMG | -0.31
HMFVEKDSIINKGNNSYNFVITDNNNKVLVEYNGLLPDLFKEEQGVVIEGRLKSDFIIHAFTVF | -0.462
HMSTRKAFVNGDGVRLRSGPGTNHSIRASLTKGQTVFVTGTKDGWASVSVQGGASGWVSADLLKYE | 0.237
HMWQKGEPAITGLKRISKPGLRIYSKNDELPIVYGNRGIAVISTNKGVMTGIEAKRSGVGGEVLFYV | 0.104
HMHDAKTQLQEEAARRGLPAPVYTRIGQEGPDHAPRFRVRADVGPHQAEAVAGSLKLAQAEAARAILRQMP | 0.28
HMSGITDIITDGKATSRPVVVTDGGHIRVLSPYTSFAIYTLGGMSLPTESRLEPGIYIVVVDSNAVKVAV | -0.408
HMESIEAGTFELDNKTSIDISEDEANLLNKMFEELTETNSKDMYGVMVADEAGFNEILEFAKENL | -0.551
